Measured values taken from PMC8570500 (2021).

B1: HA-Vpx HIV-2.Gh1 WT [HIV-2 (Ghana-1 strain)] / DCAF1, endogenous (DDB1- and Cul4A-associated factor 1) [human (endogenous in HeLa)] (parent complex)
chain 1: MTDPRERVPPGNSGEETIGEAFEWLDRTIEALNREAVNHLPRELIFQVWQRSWRYWHDDQGMSPSYTKYRYLCLMQKAVFIHFKRGCTCLGGGHGPGGWRSGPPPPPPPGLV
chain 2: not shown

Variants of: B1
Assay: co-immunoprecipitation (anti-Flag IP of TASOR-Flag, western blot band quantification); Ternary read-out: endogenous DCAF1 recovered with TASOR-Flag (m24) in the presence of this HA-Vpx mutant, HeLa cells; lane 11; no value printed for the WT lane

Variant	screen value
chain 1 V48A	0.5

Variants of: B1
Assay: co-immunoprecipitation (anti-Flag IP of TASOR-Flag, western blot band quantification); Ternary read-out: endogenous DCAF1 recovered with TASOR-Flag (m24) in the presence of this HA-Vpx mutant, HeLa cells; lane 12; no value printed for the WT lane

Variant	screen value
chain 1 Q47A, chain 1 V48A	0.2

Variants of: B1
Assay: co-immunoprecipitation (anti-Flag IP of TASOR-Flag, western blot band quantification); Ternary read-out: endogenous DCAF1 recovered with TASOR-Flag (m24) in the presence of this HA-Vpx mutant, HeLa cells; lane 10; no value printed for the WT lane

Variant	screen value
chain 1 Q47A	1
